{"source": "the RNAGym collection of RNA variant scans (doi:10.1093/molbev/msab373)", "parents": {"B1": {"name": "Azoarcus group I ribozyme (parent)", "chain": "GUGCCUUGCGCCGGGAAACCACGCAAGGGAUGGUGUCAAAUUCGGCGAAACCUAAGCGCCCGCCCGGGCGUAUGGCAACGCCGAGCCAAGCUUCGGCGCCUGCGCCGAUGAAGGUGUAGAGACUAGACGGCACCCACCUAAGGCAAACGCUAUGGUGAAGGCAUAGUCCAGGGAGUGGCGAAAGUCACACAAACCGG"}}}
{"variants_of": "B1", "experiment": "reverse-splicing fitness (ratio to wild type); higher = more active; in vitro selection; Mg2+ level not given", "method_in_brief": "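An in vitro group I ribozyme library with randomized positions was T7-transcribed and gel-purified. In triplicate, 10 pmol RNA in EPPS pH 7.5 was reacted with 50 pmoles of a 30-nt RNA substrate for 1 h at 37 °C across several added MgCl2 levels (1–48 mM), then stopped with EDTA. Products were reverse transcribed from a substrate-complementary primer, PCR-amplified and sequenced (HiSeq 4000). Fitness is a variant's read proportion after selection over that before, normalised to wild type.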"}
{"variant": "A111C A120C A145C C169A U176A", "reverse-splicing fitness": 0.0126}
{"variant": "A111C A120C A145C C169A U176C", "reverse-splicing fitness": 0.00756}
{"variant": "A111C A120C A145C C169A U176G", "reverse-splicing fitness": 0.00493}
{"variant": "A111C A120C A145C", "reverse-splicing fitness": 0.556}
{"variant": "C82U A145U C169A", "reverse-splicing fitness": 0.00801}
{"variant": "C82U A145U C169G", "reverse-splicing fitness": 0.00906}
{"variant": "C82U A145U C169U", "reverse-splicing fitness": 0.0139}
{"variant": "C82U A145U C150G", "reverse-splicing fitness": 0.0715}
{"variant": "C82U A145U C150A", "reverse-splicing fitness": 0.0658}
{"variant": "C82U A145U C150U", "reverse-splicing fitness": 0.438}
{"variant": "C82U C150A C169U U176A", "reverse-splicing fitness": 0.0169}
{"variant": "C82U C150A C169U U176G", "reverse-splicing fitness": 0.0058}
{"variant": "C82U C150A C169U U176C", "reverse-splicing fitness": 0.0153}
{"variant": "C82U A145G C150A U176G", "reverse-splicing fitness": 0.0228}
{"variant": "C82U A145G C150A U176A", "reverse-splicing fitness": 0.0793}
{"variant": "C82U A145G C150A U176C", "reverse-splicing fitness": 0.0964}
{"variant": "C82U C169G U176A", "reverse-splicing fitness": 0.0144}
{"variant": "C82U C169G U176G", "reverse-splicing fitness": 0.00406}
{"variant": "C82U C169G U176C", "reverse-splicing fitness": 0.0184}
{"variant": "C82U A145C C150G C169A U176C", "reverse-splicing fitness": 0.00546}
{"variant": "C82U A145C C150G C169A U176G", "reverse-splicing fitness": 0.0049}
{"variant": "C82U A145C C150G C169A U176A", "reverse-splicing fitness": 0.00717}
{"variant": "C82U A145U C150U C169A", "reverse-splicing fitness": 0.00939}
{"variant": "C82U A145U C150U C169G", "reverse-splicing fitness": 0.00951}
{"variant": "C82U A145U C150U C169U", "reverse-splicing fitness": 0.0118}
{"variant": "A111C A120C A145C C169G U176G", "reverse-splicing fitness": 0.00634}
{"variant": "A111C A120C A145C C169G U176A", "reverse-splicing fitness": 0.0217}
{"variant": "A111C A120C A145C C169G U176C", "reverse-splicing fitness": 0.0167}
{"variant": "C82U A145G C150G U176G", "reverse-splicing fitness": 0.0108}
{"variant": "C82U A145G C150G U176C", "reverse-splicing fitness": 0.0584}
{"variant": "C82U A145G C150G U176A", "reverse-splicing fitness": 0.0372}
{"variant": "A111C A120C A145C C150U C169U", "reverse-splicing fitness": 0.048}
{"variant": "A111C A120C A145C C150U C169A", "reverse-splicing fitness": 0.00837}
{"variant": "A111C A120C A145C C150U C169G", "reverse-splicing fitness": 0.00649}
{"variant": "C82U C150G C169G U176G", "reverse-splicing fitness": 0.00464}
{"variant": "C82U C150G C169G U176C", "reverse-splicing fitness": 0.0054}
{"variant": "C82U C150G C169G U176A", "reverse-splicing fitness": 0.00631}
{"variant": "C82U A145C C150G C169U U176G", "reverse-splicing fitness": 0.00486}
{"variant": "C82U A145C C150G C169U U176C", "reverse-splicing fitness": 0.00785}
{"variant": "C82U A145C C150G C169U U176A", "reverse-splicing fitness": 0.00881}
{"variant": "C82U A145G C150U U176A", "reverse-splicing fitness": 0.315}
{"variant": "C82U A145G C150U U176C", "reverse-splicing fitness": 0.372}
{"variant": "C82U A145G C150U U176G", "reverse-splicing fitness": 0.0868}
{"variant": "C82U A145U C150U C169U U176G", "reverse-splicing fitness": 0.00433}
{"variant": "C82U A145U C150U C169U U176C", "reverse-splicing fitness": 0.0115}
{"variant": "C82U A145U C150U C169U U176A", "reverse-splicing fitness": 0.0133}
{"variant": "C82U A145C C150U U176A", "reverse-splicing fitness": 0.114}
{"variant": "C82U A145C C150U U176C", "reverse-splicing fitness": 0.127}
{"variant": "C82U A145C C150U U176G", "reverse-splicing fitness": 0.0408}
{"variant": "C82U A145U C150G C169G", "reverse-splicing fitness": 0.00717}
{"variant": "C82U A145U C150G C169A", "reverse-splicing fitness": 0.00864}
{"variant": "C82U A145U C150G C169U", "reverse-splicing fitness": 0.00842}
{"variant": "C82U A145U C150A C169G U176C", "reverse-splicing fitness": 0.00918}
{"variant": "C82U A145U C150A C169G U176G", "reverse-splicing fitness": 0.0051}
{"variant": "C82U A145U C150A C169G U176A", "reverse-splicing fitness": 0.0104}
{"variant": "C82U A145U C150U C169A U176A", "reverse-splicing fitness": 0.0115}
{"variant": "C82U A145U C150U C169A U176C", "reverse-splicing fitness": 0.00789}
{"variant": "C82U A145U C150U C169A U176G", "reverse-splicing fitness": 0.0048}
{"variant": "A111C A120C A145C C150A C169G U176C", "reverse-splicing fitness": 0.0146}
{"variant": "A111C A120C A145C C150A C169G U176A", "reverse-splicing fitness": 0.0246}
{"variant": "A111C A120C A145C C150A C169G U176G", "reverse-splicing fitness": 0.007}
{"variant": "C82U A145G C169G U176A", "reverse-splicing fitness": 0.0184}
{"variant": "C82U A145G C169G U176G", "reverse-splicing fitness": 0.00452}
{"variant": "C82U A145G C169G U176C", "reverse-splicing fitness": 0.0258}
{"variant": "A111C A120C A145C C150A U176G", "reverse-splicing fitness": 0.0084}
{"variant": "A111C A120C A145C C150A U176A", "reverse-splicing fitness": 0.0203}
{"variant": "A111C A120C A145C C150A U176C", "reverse-splicing fitness": 0.0293}
{"variant": "C82U A145U C150G C169U U176A", "reverse-splicing fitness": 0.00782}
{"variant": "C82U A145U C150G C169U U176G", "reverse-splicing fitness": 0.00514}
{"variant": "C82U A145U C150G C169U U176C", "reverse-splicing fitness": 0.0114}
{"variant": "C82U C150A C169G U176A", "reverse-splicing fitness": 0.0177}
{"variant": "C82U C150A C169G U176G", "reverse-splicing fitness": 0.00558}
{"variant": "C82U C150A C169G U176C", "reverse-splicing fitness": 0.0184}
{"variant": "A111C", "reverse-splicing fitness": 0.872}
{"variant": "C82U A145G C150U C169A U176C", "reverse-splicing fitness": 0.0136}
{"variant": "C82U A145G C150U C169A U176G", "reverse-splicing fitness": 0.00522}
{"variant": "C82U A145G C150U C169A U176A", "reverse-splicing fitness": 0.0158}
{"variant": "C82U A145U C150G C169G U176C", "reverse-splicing fitness": 0.00478}
{"variant": "C82U A145U C150G C169G U176G", "reverse-splicing fitness": 0.0049}
{"variant": "C82U A145U C150G C169G U176A", "reverse-splicing fitness": 0.00745}
{"variant": "C82U A145G C150U C169U U176G", "reverse-splicing fitness": 0.00493}
{"variant": "C82U A145G C150U C169U U176C", "reverse-splicing fitness": 0.0134}
{"variant": "C82U A145G C150U C169U U176A", "reverse-splicing fitness": 0.0142}
